Holding throughout (experiment): cell-based or functional assay
Assay [1] addresses HIV-1 Env of isolate JRFL (HIV-1).
In assay [2] the target is HIV-1 Env of isolate MGRM-Chronic-B-010 (HIV-1).
In assay [3] the target is HIV-1 Env of isolate MGRM-Chronic-B-011 (HIV-1).
The target in assay [4] is HIV-1 Env of isolate MGRM-Chronic-B-012 (HIV-1).
Assay [5] concerns the target HIV-1 Env of isolate MGRM-Chronic-B-017 (HIV-1).
Assay [6] concerns the target HIV-1 Env of isolate MGRM-Chronic-B-018 (HIV-1).
The target of assay [7] is HIV-1 Env of isolate MGRM-Chronic-B-020 (HIV-1).
For assay [8], the target named is HIV-1 Env of isolate MGRM-Chronic-B-023 (HIV-1).
The target of assay [9] is HIV-1 Env of isolate MGRM-Chronic-B-024 (HIV-1).
Assay [10] deals with HIV-1 Env of isolate MGRM-D-002 (HIV-1).
The target of assay [11] is HIV-1 Env of isolate MGRM-G-001 (HIV-1).
Assay [12] deals with HIV-1 Env of isolate MGRM-G-004 (HIV-1).
For assay [13], the target named is HIV-1 Env of isolate MGRM-G-006 (HIV-1).
Assay [14] deals with HIV-1 Env of isolate MGRM-G-009 (HIV-1).
For assay [15], the target named is HIV-1 Env of isolate MGRM-G-011 (HIV-1).
Assay [16] concerns the target HIV-1 Env of isolate MGRM-G-013 (HIV-1).
Assay [17] addresses HIV-1 Env of isolate MGRM-G-014 (HIV-1).
The target of assay [18] is HIV-1 Env of isolate MGRM-G-015 (HIV-1).
The target of assay [19] is HIV-1 Env of isolate MGRM-G-016 (HIV-1).
Assay [20] has as its target HIV-1 Env of isolate MGRM-G-017 (HIV-1).
Assay [21] addresses HIV-1 Env of isolate MGRM-G-019 (HIV-1).
Assay [22] concerns the target HIV-1 Env of isolate MGRM-G-027 (HIV-1).
The target in assay [23] is HIV-1 Env of isolate THR0.18 (HIV-1).
The target in assay [24] is aMLV envelope (negative control pseudovirus).
Assay [25] concerns the target HIV-1 Env of isolate MGRM-AE-007 (HIV-1).
Assay [26] deals with HIV-1 Env of isolate MGRM-AE-008 (HIV-1).
Assay [27] concerns the target HIV-1 Env of isolate MGRM-AG-001 (HIV-1).
The target in assay [28] is HIV-1 Env of isolate MGRM-AG-002 (HIV-1).
For assay [29], the target named is HIV-1 Env of isolate MGRM-AG-003 (HIV-1).
Assay [30] concerns the target HIV-1 Env of isolate MGRM-AG-005 (HIV-1).
For assay [31], the target named is HIV-1 Env of isolate MGRM-AG-006 (HIV-1).
In assay [32] the target is HIV-1 Env of isolate MGRM-AG-008 (HIV-1).
Assay [33] deals with HIV-1 Env of isolate MGRM-AG-009 (HIV-1).
The target of assay [34] is HIV-1 Env of isolate MGRM-AG-011 (HIV-1).
The target of assay [35] is HIV-1 Env of isolate MGRM-AG-012 (HIV-1).
Assay [36] concerns the target HIV-1 Env of isolate MGRM-AG-013 (HIV-1).
Assay [37] concerns the target HIV-1 Env of isolate MGRM-AE-004 (HIV-1).
The target of assay [38] is HIV-1 Env of isolate MGRM-AE-005 (HIV-1).
Assay [39] deals with HIV-1 Env of isolate MGRM-AE-006 (HIV-1).

We go through nine substances from patent publication US20200024330A1.

Where only a bound is given, the exact number is not on record here.

Chain of 5345_I01 (PGT-137) (antibody) (VH): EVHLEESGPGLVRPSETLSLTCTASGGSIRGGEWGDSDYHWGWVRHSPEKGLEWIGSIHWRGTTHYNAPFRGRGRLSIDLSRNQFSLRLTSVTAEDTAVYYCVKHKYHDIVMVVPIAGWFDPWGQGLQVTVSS
Chain of 5345_I01 (PGT-137) (antibody) (VL): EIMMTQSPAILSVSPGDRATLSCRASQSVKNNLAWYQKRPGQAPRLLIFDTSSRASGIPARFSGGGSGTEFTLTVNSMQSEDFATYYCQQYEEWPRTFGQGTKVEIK

Usually IC50 stands for the concentration that inhibits the measured activity by half. In the case of 5114_A19 (PGT-128) (antibody), the IC50 was 0.007 µg/mL in assay [1]; 0.004 µg/mL in [2]; 0.02 µg/mL in assay [3]; 0.026 µg/mL in assay [4]; above 50 µg/mL in [5]; 0.02 µg/mL in [6]. For the same substance, the IC50 in [7] is 0.007 µg/mL; in [8], above 50 µg/mL; in assay [9], above 50 µg/mL; in assay [10] it was 0.011 µg/mL; in [23] it was above 50 µg/mL. Besides, the IC50, pseudovirus neutralization in [11] was 0.019 µg/mL; in [12] it was above 50 µg/mL; in assay [13], above 50 µg/mL; in assay [14] it was above 50 µg/mL; in assay [15] it was 8.21 µg/mL; in assay [16], 0.995 µg/mL. For the same substance, the IC50, pseudovirus neutralization was 0.004 µg/mL in assay [17]; above 50 µg/mL in assay [18]; above 50 µg/mL in assay [19]; 0.319 µg/mL in assay [20]; 0.01 µg/mL in assay [21]; 0.313 µg/mL in assay [22]. In [24], the IC50, pseudovirus neutralization was above 50 µg/mL.
As to 5136_H01 (PGT-131) (antibody), the half-inhibitory concentration (IC50) was 0.454 µg/mL in assay [1]; 0.016 µg/mL in assay [2]; 6.47 µg/mL in assay [3]; 15.7 µg/mL in assay [4]; above 50 µg/mL in [5]; above 50 µg/mL in assay [6]. Also, the IC50 in assay [7] was 0.053 µg/mL; in [8], above 50 µg/mL; in [9], above 50 µg/mL; in assay [10], 11.2 µg/mL; in [23], above 50 µg/mL. Further, the IC50, pseudovirus neutralization in assay [11] was 0.404 µg/mL; in assay [12], above 50 µg/mL; in assay [13] it was above 50 µg/mL; in assay [14] it was above 50 µg/mL; in [15] it was above 50 µg/mL; in assay [16], above 50 µg/mL. Also, the IC50, pseudovirus neutralization in [17] was 4.31 µg/mL; in [18] it was above 50 µg/mL; in assay [19] it was above 50 µg/mL; in assay [20], above 50 µg/mL; in assay [21], above 50 µg/mL; in [22], 2.9 µg/mL. The substance further yielded an IC50, pseudovirus neutralization in [24] above 50 µg/mL.
For 5345_I01 (PGT-137) (antibody), the IC50 in assay [1], in assay [2], in assay [3], in assay [4], in assay [5] and in [6] was above 50 µg/mL throughout. Further, the IC50 in assay [7] is 32.9 µg/mL; in assay [8] it was above 50 µg/mL; in [9], above 50 µg/mL; in assay [10], above 50 µg/mL; in assay [23] it was above 50 µg/mL. In addition, the IC50, pseudovirus neutralization in assay [11] was 41.7 µg/mL; in assay [12] it was above 50 µg/mL; in [13], above 50 µg/mL; in assay [14], above 50 µg/mL; in [15] it was above 50 µg/mL; in [16], above 50 µg/mL. Also, the IC50, pseudovirus neutralization in assay [17] was above 50 µg/mL; in [18], above 50 µg/mL; in [19] it was above 50 µg/mL; in [20] it was 34.9 µg/mL; in assay [21], 0.126 µg/mL; in [22] it was 0.228 µg/mL. In assay [24], this substance yielded an IC50, pseudovirus neutralization above 50 µg/mL.
Turning to PGT-141 (4964_G22; 4993_K13) (antibody), the IC50 in assay [25] was 33.1 µg/mL; in [26], 0.101 µg/mL; in [27], 18 µg/mL; in assay [28] it was 0.049 µg/mL; in assay [29] it was above 50 µg/mL; in assay [30], 0.497 µg/mL. The IC50 in assay [31] was above 50 µg/mL; in assay [32], 19.2 µg/mL; in [33] it was above 50 µg/mL; in assay [34] it was 0.118 µg/mL; in assay [35], above 50 µg/mL; in assay [36], above 50 µg/mL. In assay [24], the neutralization IC50 was above 50 µg/mL.
For PGT-142 (4995_E20) (antibody), the IC50 in assay [25] was 6.7 µg/mL; in assay [26], 0.08 µg/mL; in assay [27], 12.4 µg/mL; in assay [28] it was 0.044 µg/mL; in assay [29], above 50 µg/mL; in assay [30], 0.383 µg/mL. In addition, the concentration for half-maximal inhibition (IC50) in [31] was above 50 µg/mL; in assay [32] it was 12.1 µg/mL; in [33], above 50 µg/mL; in [34] it was 0.081 µg/mL; in assay [35], above 50 µg/mL; in assay [36], 21.7 µg/mL. In [24], the neutralization IC50 was above 50 µg/mL.
In the case of PGT-143 (4980_N08) (antibody), the half-maximal inhibitory concentration (IC50) in assay [25] was 13.6 µg/mL; in [26], 0.135 µg/mL; in assay [27], 18.9 µg/mL; in assay [28] it was 0.076 µg/mL; in assay [29], above 50 µg/mL; in [30] it was 1.11 µg/mL. The IC50 in assay [31] was above 50 µg/mL; in assay [32], 34 µg/mL; in [33], above 50 µg/mL; in assay [34], 0.156 µg/mL; in assay [35], above 50 µg/mL; in [36] it was above 50 µg/mL. The neutralization IC50 in assay [24] is above 50 µg/mL.
PGT-144 (4970_K22) (antibody): the IC50 in [25] is above 50 µg/mL; in assay [26] it was 3.55 µg/mL; in [27] it was above 50 µg/mL; in assay [28], 7.78 µg/mL; in assay [29], above 50 µg/mL; in assay [30], above 50 µg/mL. The IC50 in [31] was above 50 µg/mL; in assay [32], above 50 µg/mL; in [33], above 50 µg/mL; in [34] it was 44.6 µg/mL; in assay [35] it was above 50 µg/mL; in [36], above 40 µg/mL. Moreover, the neutralization IC50 in assay [24] was above 50 µg/mL.
With PGV04 (antibody), the IC50 (µg/mL), pseudovirus neutralization in [37] is 0.183 µg/mL; in assay [38] it was 0.051 µg/mL; in assay [39], above 50 µg/mL; in assay [25] it was 5.75 µg/mL; in assay [26], 1.51 µg/mL; in [27] it was 0.218 µg/mL. The IC50 (µg/mL), pseudovirus neutralization is 0.879 µg/mL in assay [28]; 0.058 µg/mL in [29]; 0.027 µg/mL in [30]; 1.23 µg/mL in assay [31]; 2.48 µg/mL in assay [32]; 0.148 µg/mL in assay [33]. In addition, the IC50 (µg/mL), pseudovirus neutralization was found to be 0.071 µg/mL in [34], 0.04 µg/mL in [35], 0.03 µg/mL in assay [36] and 0.322 µg/mL in assay [10]. Besides, the neutralization IC50 in assay [24] was above 50 µg/mL.
On to VRC01 (antibody), for which the IC50 in [1] worked out at 0.034 µg/mL; in assay [25], 0.835 µg/mL; in assay [26], 1.72 µg/mL; in [27], 0.228 µg/mL; in [28], 0.95 µg/mL; in [29] it was 0.043 µg/mL. The IC50 was 0.091 µg/mL in [30]; 0.344 µg/mL in assay [31]; 0.124 µg/mL in assay [32]; above 50 µg/mL in assay [33]; 0.084 µg/mL in assay [34]; 0.031 µg/mL in assay [35]. Further, the IC50 in assay [36] is 0.197 µg/mL. For the same substance, the neutralization IC50 came out at 0.156 µg/mL in assay [2]; 0.587 µg/mL in assay [3]; 1.03 µg/mL in [4]; 0.141 µg/mL in [5]; 0.328 µg/mL in assay [6]; 0.424 µg/mL in [7]. Moreover, the neutralization IC50 is 0.275 µg/mL in assay [8], 0.377 µg/mL in [9], 2.46 µg/mL in assay [23] and above 50 µg/mL in assay [24].
